The FLAb antibody collection (doi:10.7554/elife.23156)

B1: scFv; the commonest letter at each place (parent)
chain 1: EVKLDETGGGLVQPGRPMKLSCVASGFTFSDYWMNWVRQSPEKGLEWVAQIRNKPYNYETYYSDSVKGRFTISRDDSKSSVYLQMNNLRVEDMGIYYCTGSYYGMDYWGQGTSVTVS
chain 2: DVVMTQTPLSLPVSLGDQASISCRSSQSLVHSNGNTYLRWYLQKPGQSPKVLIYKVSNRFSGVPDRFSGSGSGTDFTLKISRVEAEDLGVYFCSQSTHVPWTFGGGTKLEIK

Legend:
fluorescein = variants of: B1; experiment: Kd (Tite-Seq); conditions: with fluorescein; format: scFv 4-4-20, heavy + light
[1] = variants of: B1; experiment: yeast surface expression (ratio to wild type); higher = more expressed; conditions: format: scFv 4-4-20, heavy + light

Variant | Kd (fluorescein) | yeast surface expression [1]
chain 1 S30Y | 0.00146 µM | 0.759
chain 1 S30D | 0.00205 µM | 0.919
chain 1 S30P | 0.00101 µM | 1.06
chain 1 M105S G109C | ≥ 10 µM | 0.182
chain 1 T28I F29R | ≥ 10 µM | 0.695
chain 1 Y102C G104D | ≥ 10 µM | 0.919
chain 1 Y103C D106L | ≥ 10 µM | 0.589
chain 1 S30I M34V | 0.0113 µM | 0.753
chain 1 Y32S M34S V37M | ≥ 10 µM | 0.65
chain 1 D31H W33P | ≥ 10 µM | 0.631
chain 1 T28R S30L D31S | ≥ 10 µM | 0.198
chain 1 T28N Y32Q | ≥ 10 µM | 1.04
chain 1 W108C | 0.000646 µM | 0.717
chain 1 W108Q | 0.0233 µM | 0.506
chain 1 W108G | 0.102 µM | 0.48
chain 1 M34C V37I | 0.00708 µM | 0.76
chain 1 M34C V37H | ≥ 10 µM | 0.466
chain 1 G100K W108H | ≥ 10 µM | 0.249
chain 1 Y107P G109N | ≥ 10 µM | 0.355
chain 1 M105K Y107T | 0.712 µM | 0.559
chain 1 W33D M34W | ≥ 10 µM | 1.03
chain 1 D106L W108M | ≥ 10 µM | 0.541
chain 1 Y103Q M105Q | 4.37 µM | 1.14
chain 1 D106G Y107S | ≥ 10 µM | 0.474

Variant | Kd (fluorescein) | yeast surface expression [1]
chain 1 S30K Y32E | ≥ 10 µM | 0.857
chain 1 D31V V37E | 0.205 µM | 0.807
chain 1 G100I Y103H | ≥ 10 µM | 0.94
chain 1 D106N W108Q | ≥ 10 µM | 0.453
chain 1 S101Q Y102D W108I | ≥ 10 µM | 0.495
chain 1 W33T N35D V37W | ≥ 10 µM | 0.582
chain 1 G100A S101F | ≥ 10 µM | 0.652
chain 1 G100M S101I G104T | ≥ 10 µM | 0.359
chain 1 F29V W36L | ≥ 10 µM | 0.332
chain 1 T28S F29S | 0.0269 µM | 1.17
chain 1 T28W D31R | 0.0171 µM | 0.51
chain 1 T28N M34E V37L | ≥ 10 µM | 0.571
chain 1 D31F N35S | ≥ 10 µM | 0.367
chain 1 G104D Y107F | ≥ 10 µM | 0.945
chain 1 G104D Y107D | ≥ 10 µM | 0.716
chain 1 M105T G109V | ≥ 10 µM | 0.216
chain 1 G104T G109L | ≥ 10 µM | 0.241
chain 1 S101D M105T | ≥ 10 µM | 0.799
chain 1 S101A Y107S | 0.00175 µM | 0.854
chain 1 Y102D D106Q | ≥ 10 µM | 0.733
chain 1 G104Q G109Q | ≥ 10 µM | 0.248
chain 1 W36T V37M | ≥ 10 µM | 0.422
chain 1 W33N M34D | ≥ 10 µM | 0.567
chain 1 F29A M34A | ≥ 10 µM | 0.738

Variant | Kd (fluorescein) | yeast surface expression [1]
chain 1 Y102D W108T | 0.00917 µM | 0.785
chain 1 M34W W36T | ≥ 10 µM | 0.686
chain 1 T28M V37G | ≥ 10 µM | 0.468
chain 1 S30L Y32H | 2.23 µM | 0.8
chain 1 F29G D31Y | ≥ 10 µM | 0.708
chain 1 G104C Y107F | ≥ 10 µM | 0.291
chain 1 D31W W36E | ≥ 10 µM | 1.08
chain 1 M34V V37K | ≥ 10 µM | 0.747
chain 1 Y102M | 4.6 µM | 0.944
chain 1 Y102T | 0.00894 µM | 0.932
chain 1 Y102P | ≥ 10 µM | 0.77
chain 1 F29I D31E Y32T | ≥ 10 µM | 0.84
chain 1 Y32Q M34I | ≥ 10 µM | 0.765
chain 1 S101G Y102L | ≥ 10 µM | 1.06
chain 1 Y107K W108Q | ≥ 10 µM | 0.659
chain 1 Y102Q G104L | ≥ 10 µM | 0.667
chain 1 T28V N35H | ≥ 10 µM | 0.671
chain 1 T28E F29Q | 0.00827 µM | 1
chain 1 T28G | 0.0189 µM | 0.994
chain 1 T28P | 0.000743 µM | 0.989
chain 1 S30G W36L | ≥ 10 µM | 0.597
chain 1 D106W G109A | ≥ 10 µM | 0.168
chain 1 Y103I D106A | ≥ 10 µM | 0.489
chain 1 S30W D31N | ≤ 0.000316 µM | 0.866

Variant | Kd (fluorescein) | yeast surface expression [1]
chain 1 D31L Y32N | ≥ 10 µM | 0.847
chain 1 G104K Y107P G109N | ≥ 10 µM | 0.307
chain 1 G100N S101I | ≥ 10 µM | 0.189
chain 1 Y102S D106R | ≥ 10 µM | 0.499
chain 1 T28V W36H | ≥ 10 µM | 0.619
chain 1 T28C F29P | ≥ 10 µM | 0.637
chain 1 F29L S30L | ≥ 10 µM | 0.651
chain 1 S30K N35G | 0.0162 µM | 1.03
chain 1 T28C M34L W36M | ≥ 10 µM | 0.657
chain 1 T28H S30G | 0.00122 µM | 1.04
chain 1 N35C V37L | ≥ 10 µM | 0.527
chain 1 F29Q M34W | ≥ 10 µM | 1.56
chain 1 M105P | ≥ 10 µM | 0.648
chain 1 G100W Y102S | 0.00606 µM | 0.723
chain 1 G100C S101C | ≥ 10 µM | 0.624
chain 1 Y102E M105P | ≥ 10 µM | 0.839
chain 1 G100V G104A | ≥ 10 µM | 0.747
chain 1 Y103L M105C | ≥ 10 µM | 1
chain 1 M34Q | 9.5 µM | 0.801
chain 1 M34E | ≥ 10 µM | 0.617
chain 1 M34P | ≥ 10 µM | 0.508
chain 1 M34C | 0.00326 µM | 0.712
chain 1 G100C D106Q | ≥ 10 µM | 0.754
chain 1 S101M G104I | ≥ 10 µM | 0.274

Variant | Kd (fluorescein) | yeast surface expression [1]
chain 1 G100V Y107M | ≥ 10 µM | 0.726
chain 1 D31Y | 0.00334 µM | 0.729
chain 1 D31P | ≥ 10 µM | 0.853
chain 1 D31F | 0.00547 µM | 0.636
chain 1 Y103W G104F M105E | ≥ 10 µM | 0.578
chain 1 W108P G109N | ≥ 10 µM | 0.473
chain 1 D31P V37W | ≥ 10 µM | 0.565
chain 1 T28L M34D | ≥ 10 µM | 0.101
chain 1 G100D M105W W108Y | ≥ 10 µM | 0.168
chain 1 S101D W108A | ≥ 10 µM | 0.443
chain 1 S101D W108N | ≥ 10 µM | 0.445
chain 1 S30C W33I | ≥ 10 µM | 0.877
chain 1 S30C W33Y | ≥ 10 µM | 1.04
chain 1 Y32E W36H | ≥ 10 µM | 0.342
chain 1 Y32K W33I | ≥ 10 µM | 0.763
chain 1 G104Y G109T | ≥ 10 µM | 0.0981
chain 1 G100W S101D G109V | ≥ 10 µM | 0.286
chain 1 Y32N M34E | 0.021 µM | –
chain 1 S101Y D106E | ≥ 10 µM | 0.627
chain 1 M34G V37R | ≥ 10 µM | 1.62
